Reference: paper PMC9302720

Target: SARS-CoV-2 protein S ectodomain, Wuhan-Hu-1 variant (SARS-CoV-2 | not stated) (UniProt P0DTC2)
Test: BLI

**Q.** With “N-terminal peptidase domain of human ACE2 (domain or fragment)” as the substance, how does the Kd read?
**A.** 79.3 nM

**Q.** And the koff?
**A.** 0.0162 s⁻¹

**Q.** And the kon?
**A.** 210000 M⁻¹ s⁻¹
